Reference: patent publication US6040160A, “Method of producing L-lysine by fermentation” (Ajinomoto Co., Inc., priority 1993, dated 2000)

B1: Wild type: wild type aspartokinase III (AKIII) of E. coli encoded by lysC on pLYSC1 (protein, UniProt P08660 2-449, looked up)
Lysine-sensitive …: SEIVVSKFGGTSVADFDAMNRSADIVLSDANVRLVVLSASAGITNLLVALAEGLEPGERFEKLDAIRNIQFAILERLRYPNVIREEIERLLENITVLAEAAALATSPALTDELVSHGELMSTLLFVEILRERDVQAQWFDVRKVMRTNDRFGRAEPDIAALAELAALQLLPRLNEGLVITQGFIGSENKGRTTTLGRGGSDYTAALLAEALHASRVDIWTDVPGIYTTDPRVVSAAKRIDEIAFAEAAEMATFGAKVLHPATLLPAVRSDIPVFVGSSKDPRAGGTLVCNKTENPPLFRALALRRNQTLLTLHSLNMLHSRGFLAEVFGILARHNISVDLITTSEVSVALTLDTTGSTSTGDTLLTQSLLMELSALCRVEVEEGLALVALIGNDLSKACGVGKEVFGVLEPFNIRMICYGASSHNLCFLVPGEDAEQVVQKLHSNLFE
B2: wild type DDPS: wild type dihydrodipicolinate synthase of E. coli (dapA product) (protein, UniProt P0A6L2 1-292, looked up)
4-hydroxy-tetrahydrodipicolina …: MFTGSIVAIVTPMDEKGNVCRASLKKLIDYHVASGTSAIVSVGTTGESATLNHDEHADVVMMTLDLADGRIPVIAGTGANATAEAISLTQRFNDSGIVGCLTVTPYYNRPSQEGLYQHFKAIAEHTDLPQILYNVPSRTGCDLLPETVGRLAKVKNIIGIKEATGNLTRVNQIKELVSDDFVLLSGDDASALDFMQLGGHGVISVTANVAARDMAQMCKLAAEGHFAEARVINQRLMPLHNKLFVEPNPIPVKWACKELGLVATDTLRLPMTPITDSGRETVRAALKHAGLL
B3: pdapAS24 (protein)
chain: MFTGSIVAIVTPMDEKGNVCRASLKKLIDYHVASGTSAIVSVGTTGESATLNHDEHADVVMMTLDLADGRIPVIAGTGANATAEAISLTQRFNDSGIVGCLTVTPYYNRPSQEGLYQYFKAIAEHTDLPQILYNVPSRTGCDLLPETVGRLAKVKNIIGIKEATGNLTRVNQIKELVSDDFVLLSGDDASALDFMQLGGHGVISVTTNVAARDMAQMCKLAAEEHFAEARVINQRLMPLHNKLFVEPNPIPVKWACKELGLVATDTLRLPMTPITDSGRETVRAALKHAGLL

How the values were obtained:
Format in all cases: biochemical, E. coli
AKIII = AKIII enzyme activity and inhibition by L-lysine, cell-free extract of GT3 transformants
Excerpt: No. 24, No. 43, No. 48, No. 60, No. 80, No. 117, No. 126, No. 149, No. 150, No. 156, No. 158, No. 167, No. 169 and No. 172 were selected as representative strains of the aforementioned 14 groups. Mutant plasmids derived from pLYSC1 were recovered from each of them, and designated as pLYSC1*24, pLYSC1*43, pLYSC1*48, pLYSC1*60, pLYSC1*80, pLYSC1*117, pLYSC1*126, pLYSC1*149, pLYSC1*150, pLYSC1*156, pLYSC1*158, pLYSC1*167, pLYSC1*169 and pLYSC1*172, respectively. An AK completely deficient strain GT3 was transformed with them and the wild type pLYSC1. A cell-free extract was prepared from each of transformed strains, and the enzyme activity of AKIII was measured.
The cell-free extract (crude enzyme solution) was prepared as follows. A transformed strain was cultivated in a 2×TY medium, and collected at an OD660 of about 0.8. Cells were washed with 0.02 M KH2 PO4 (pH 6.75)-0.03 M β-mercaptoethanol under a condition of 0° C., and the cells were ruptured by sonication (0° C., 100 W, 30 minutes×4). A ruptured cell solution was centrifuged at 33 krpm for 1 hour under a condition of 0° C. to obtain a supernatant,to which ammonium sulfate was added to give 80% saturation. After centrifugation, a pellet was dissolved in 0.02 M KH2 PO4 (pH 6.75)-0.03 M β-mercaptoethanol, and stored at 0° C. overnight.
The enzyme activity of AKIII was measured in accordance with a method of Stadtman et al. (Stadtman, E. R., Cohen, G. N., LeBras, G., and Robichon-Szulmajster, H., J. Biol. Chem., 236, 2033 (1961)). Namely, a reaction solution having the following composition was incubated at 27° C. for 45 minutes, and an FeCl3 solution (2.8 N HCl 0.4 ml +12% TCA 0.4 ml +5% FeCl3. 6H2 O/0.1 N HCl 0.7 ml) was added to develop a color, which was centrifuged followed by measurement of absorbance of a supernatant at 540 nm. The activity was indicated by an amount of hydroxamic acid generated per minute (1 U=1 μmol/min). The molar absorption coefficient was 600. Potassium aspartate was removed from the reaction solution to be used as a blank.
Various concentrations of L-lysine were added to the enzyme reaction solution for measurement of the enzyme activity of AK, and the degree of inhibition by L-lysine was examined.
On the contrary, the mutant AKIII's obtained this time had various degrees of desensitization, however, inhibition by L-lysine was desensitized in all of 14 species. […] The specific activity per total protein, which might be affected by growth situations of cell and preparation of samples, was equal to or more than that of the wild type in almost all cases, in which there was little problem of decrease in activity due to the introduction of mutation (Table 3). […]

DDPS = DDPS enzyme activity and inhibition by L-lysine, cell-free extract of JE7627 transformants
Protocol: Mutant pdapA2's were recovered from the 36 strains described above. A dapA-deficient strain, JE7627 was transformed with them and the wild type pdapA2, respectively. A cell-free extract was prepared from each of the transformed strains, and the enzyme activity of DDPS was measured.
(§1) The cell-free extract (crude enzyme solution) was prepared as follows. A transformed strain was cultivated in a 2×TY medium (1.6% Bacto trypton, 1% Yeast extract, 0.5% NaCl), and collected at an optical density at 660 nm (OD660) of about 0.8. A cell pellet was washed with 0.85% NaCl under a condition of 0° C., and suspended in 20 mM potassium phosphate buffer (pH 7.5) containing 400 mM KCl. The cells were ruptured by sonication (0° C., 200 W, 10 minutes). A ruptured cell solution was centrifuged at 33 krpm for 1 hour under a condition of 0° C. to obtain a supernatant to which ammonium sulfate was added to give 80% saturation to be stored at 0° C. overnight followed by centrifugation. A pellet was dissolved in 20 mM potassium phosphate buffer (pH 7.5)-400 mM KCl.
(§2) The enzyme activity of DDPS was measured in accordance with a method of Yugari et al. (Yugari, Y. and Gilvarg, C., J. Biol. Chem., 240, 4710 (1962)). Namely, the absorbance of a reaction solution having the following composition was measured at 37° C. with a spectrophotometer at a wavelength of 270 nm in a time-dependent manner. And generated dihydrodipicolinate was measured. Sodium pyruvate was removed from the reaction system to be used as a blank.
Various concentrations of L-lysine were added to the enzyme reaction solution during measurement of the enzyme activity of DDPS, and the degree of inhibition by L-lysine was examined.

[1] = system: DDPS (dihydrodipicolinate synthase); test: DDPS activity of crude enzyme solutions from W3110(tyrA) strains and inhibition by L-lysine
Protocol: as §1, with “A pellet was dissolved in 20 mM potassium phosphate buffer (pH 7.5)-400 mM KCl.” left out
as §2, with “Sodium pyruvate was removed from the reaction system to be used as a blank.” left out
Crude enzyme solutions were prepared from W3110(tyrA), W3110(tyrA)/pdapA and W3110(tyrA)/pdapA* in the same manner as in Example 1, the DDPS (dihydrodipicolinate synthase) activity was measured, and the degree of inhibition of the DDPS activity by L-lysine was examined.

[2] = in the presence of 5 mM of L-lysine
[3] = various concentrations of L-lysine, FIG. 2

Row | Molecule | Inhibition of AKIII by L-lysine (AKIII; 5 mM of L-lysine) | Specific activity (AKIII; 1 U=1 μmol/min hydroxamic acid) [U/mg protein] | Degree of desensitization of inhibition (AKIII; AK activity in the presence of 100 mM of L-lysine with respect to AK activity in the absence of L-lysine) [%] | Inhibition of AKIII by L-lysine (AKIII; [2]) | Inhibition of DDPS by L-lysine (DDPS; [2]) [%] | Inhibition of DDPS by L-lysine (DDPS; [3]) | Specific activity of DDPS as compared with the wild type (DDPS) | Specific activity relative to the wild type enzyme (DDPS) [1]
1 | B1 | about 100% | 0.0247 | 0 | about 100% | – | – | – | –
2 | B2 | – | – | – | – | ~80 | suffered inhibition by L-lysine | – | –
3 | B3 | – | – | – | – | – | desensitized | lowered a little | about 1/2
